# Experimental data taken from patent publication US20220259295A1 (INSERM INSTITUT NATIONAL DE LA SANT ET DE LA RECHERCHE M …, published 2022).
# B1: B11-Bv (VHH)
# chain: EVQLQASGGGFVQPGGSLRLSCAASGSTWFREIMGWFRQAPGKEREFVSAISSDPTWHAYYADSVKGRFTISRDNSKNTVYLQMNSLRAEDTATYYCAPLAGTESIHWWDPWHESSYWGQGTQVTVSSAAAEVQLQASGGGFVQPGGSLRLSCAASGSTWFREIMGWFRQAPGKEREFVSAISSDPTWHAYYADSVKGRFTISRDNSKNTVYLQMNSLRAEDTATYYCAPLAGTESIHWWDPWHESSYWGQGTQVTVSSHHHHHH
# notes: Bivalent (monoparatopic) tandem of two B11 VHHs; also called bivalent hybribody B11-Bv; bivalent VHH B11bv
# B2: A08 (VHH)
# VHH: EVQLQASGGGFVQPGGSLRLSCAASGYYSYSSTMGWFRQAPGKEREFVSAISFYSDMAHYYADSVKGRFTISRDNSKNTVYLQMNSLRAEDTATYYCAAFSKLGKIKYWGQGTQVTVSS
# notes: Monovalent VHH from the synthetic hs2dAb library; His-tagged, detected by anti-cMyc or anti-6xHis; also called VHH A08; single domain antibody A08; not shown: cMyc tag and 6xHis tag (pHEN2 vector)
# B3: F06 (VHH)
# VHH: EVQLQASGGGFVQPGGSLRLSCAASGDTWSLEIMGWFRQAPGKEREFVSAISSEDGWHAYYADSVKGRFTISRDNSKNTVYLQMNSLRAEDTATYYCAKIENWIQAVEGEMSDYWGQGTQVTVSS
# notes: Monovalent VHH from the synthetic hs2dAb library; His-tagged, detected by anti-cMyc or anti-6xHis; also called VHH F06; single domain antibody F06; not shown: cMyc tag and 6xHis tag (pHEN2 vector)
# B4: B11 (VHH)
# VHH: EVQLQASGGGFVQPGGSLRLSCAASGSTWFREIMGWFRQAPGKEREFVSAISSDPTWHAYYADSVKGRFTISRDNSKNTVYLQMNSLRAEDTATYYCAPLAGTESIHWWDPWHESSYWGQGTQVTVSS
# notes: Monovalent VHH from the synthetic hs2dAb library, made in E. coli WK6, purified by its His tag, detected by anti-cMyc or anti-6xHis; also called VHH B11; BI 1; not shown: cMyc tag and 6xHis tag (pHEN2 vector)
# B5: B11-F06 (VHH)
# chain: EVQLQASGGGFVQPGGSLRLSCAASGSTWFREIMGWFRQAPGKEREFVSAISSDPTWHAYYADSVKGRFTISRDNSKNTVYLQMNSLRAEDTATYYCAPLAGTESIHWWDPWHESSYWGQGTQVTVSSGGGSGGGSGGGSGGGSEVQLQASGGGFVQPGGSLRLSCAASGDTWSLEIMGWFRQAPGKEREFVSAISSEDGWHAYYADSVKGRFTISRDNSKNTVYLQMNSLRAEDTATYYCAKIENWIQAVEGEMSDYWGQGTQVTVSSHHHHHH
# notes: Bivalent (biparatopic) tandem B11-linker-F06; also called bivalent hybribody B11-F06; bivalent VHH B11F06
# B6: B11-A08 (VHH)
# chain: EVQLQASGGGFVQPGGSLRLSCAASGSTWFREIMGWFRQAPGKEREFVSAISSDPTWHAYYADSVKGRFTISRDNSKNTVYLQMNSLRAEDTATYYCAPLAGTESIHWWDPWHESSYWGQGTQVTVSSGGGSGGGSGGGSGGGSEVQLQASGGGFVQPGGSLRLSCAASGYYSYSSTMGWFRQAPGKEREFVSAISFYSDMAHYYADSVKGRFTISRDNSKNTVYLQMNSLRAEDTATYYCAAFSKLGKIKYWGQGTQVTVSSHHHHHH
# notes: Bivalent (biparatopic) tandem B11-linker-A08; also called bivalent hybribody B11-A08; bivalent VHH B11A08
# Molecular target: T1, human protease nexin-1 (human, UniProt P07093 20-398)
# T1 sequence (looked up): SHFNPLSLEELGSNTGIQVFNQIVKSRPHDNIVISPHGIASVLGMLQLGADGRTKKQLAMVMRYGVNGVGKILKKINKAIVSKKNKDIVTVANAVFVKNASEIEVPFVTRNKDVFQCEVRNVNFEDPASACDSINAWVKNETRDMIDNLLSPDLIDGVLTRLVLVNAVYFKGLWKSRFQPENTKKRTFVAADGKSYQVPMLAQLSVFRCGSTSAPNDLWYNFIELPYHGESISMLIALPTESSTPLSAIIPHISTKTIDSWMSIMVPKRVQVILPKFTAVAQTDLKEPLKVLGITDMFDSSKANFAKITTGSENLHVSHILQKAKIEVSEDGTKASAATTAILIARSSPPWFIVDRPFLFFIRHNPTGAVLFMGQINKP
# Assay: cell-based or functional assay
Binder,"IC50 (thrombin activity assay, 10 nM PN-1, 1 nM thrombin) [nM]","recovery of thrombin activity (percentage of thrombin alone; 1 nM thrombin, 10 nM PN-1, 10 µM VHH) [%]"
B1,41,
B2,960,100
B3,290,100
B4,50,100
B5,62,
B6,142,

# Molecular target: T2, PN-1 released from TRAP-activated platelets (Homo sapiens (Human), UniProt P07093 20-398)
# T2 sequence: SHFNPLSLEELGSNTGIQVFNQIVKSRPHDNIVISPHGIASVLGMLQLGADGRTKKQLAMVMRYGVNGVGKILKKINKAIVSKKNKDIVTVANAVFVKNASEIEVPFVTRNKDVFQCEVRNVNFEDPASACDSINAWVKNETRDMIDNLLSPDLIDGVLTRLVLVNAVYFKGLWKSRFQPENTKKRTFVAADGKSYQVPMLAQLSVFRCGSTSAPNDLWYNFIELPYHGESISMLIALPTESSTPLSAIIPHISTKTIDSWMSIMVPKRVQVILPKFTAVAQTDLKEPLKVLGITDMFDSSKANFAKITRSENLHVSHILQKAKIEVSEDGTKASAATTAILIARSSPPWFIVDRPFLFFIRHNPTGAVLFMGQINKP
# Assay: cell-based or functional assay
row,Binder,"thrombin activity restored (supernatant of TRAP-activated platelets, 0.1 nM thrombin, 1 µM bivalent VHH) [%]"
1,B1,97
2,B5,88
3,B6,100

# Molecular target: T3, murine protease nexin-1 (murine, UniProt Q07235 20-397)
# T3 sequence (looked up): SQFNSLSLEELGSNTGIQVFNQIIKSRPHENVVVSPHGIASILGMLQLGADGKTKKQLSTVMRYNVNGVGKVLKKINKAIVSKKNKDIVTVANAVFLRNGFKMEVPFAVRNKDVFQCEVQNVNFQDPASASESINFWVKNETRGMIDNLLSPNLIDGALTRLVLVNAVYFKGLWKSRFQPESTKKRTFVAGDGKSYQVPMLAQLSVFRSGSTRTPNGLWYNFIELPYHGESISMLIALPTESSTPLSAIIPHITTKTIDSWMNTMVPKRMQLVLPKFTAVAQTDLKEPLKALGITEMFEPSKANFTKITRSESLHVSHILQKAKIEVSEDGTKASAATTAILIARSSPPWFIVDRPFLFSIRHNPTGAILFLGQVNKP
# Assay: cell-based or functional assay
Binder,"IC50 (thrombin activity assay, 10 nM PN-1, 1 nM thrombin) [nM]","modified prothrombin time (PT), murine plasma with 62.5 nM mPN-1 and 288 nM bivalent VHH [s]","recovery of thrombin activity (percentage of thrombin alone; 1 nM thrombin, 10 nM PN-1, 10 µM VHH) [%]"
B1,825,83.5,
B2,2880,,94
B3,560,,96
B4,1580,,92
B5,414,83.3,
B6,524,93.2,

# Molecular target: T4, murine protease nexin-1 (murine, UniProt Q07235 20-397)
# T4 chain: T3 sequence (looked up)
# Assay: inhibition of PN-1 activity (residual thrombin activity, chromogenic substrate)
row,Binder,IC50 [nM]
1,B1,509
2,B5,254
3,B6,395

# Molecular target: T5, human protease nexin-1 (human, UniProt P07093 20-398)
# T5 chain: T1 sequence (looked up)
# Assay: as above
row,Binder,IC50 [nM]
1,B1,40
2,B5,68
3,B6,139

# Molecular target: T6, human plasminogen activator inhibitor-1 (human, UniProt P05121 24-402)
# T6 construct: also called hPAI-1; human PAI-1
# T6 sequence (P05121 24-402 limits assumed): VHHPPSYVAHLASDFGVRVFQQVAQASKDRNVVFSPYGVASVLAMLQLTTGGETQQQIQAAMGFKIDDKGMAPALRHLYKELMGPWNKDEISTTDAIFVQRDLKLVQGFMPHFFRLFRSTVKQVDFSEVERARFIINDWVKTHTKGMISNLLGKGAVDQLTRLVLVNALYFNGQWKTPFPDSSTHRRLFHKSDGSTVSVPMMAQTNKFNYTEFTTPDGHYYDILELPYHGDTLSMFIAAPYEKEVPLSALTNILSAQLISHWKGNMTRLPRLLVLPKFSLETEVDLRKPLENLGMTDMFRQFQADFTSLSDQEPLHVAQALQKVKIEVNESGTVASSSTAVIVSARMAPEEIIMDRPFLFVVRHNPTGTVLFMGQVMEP
# Assay: ELISA, PAI-1 captured on anti-PAI-1 mAb, anti-6xHis detection
row,Binder,binding result
1,B3,no binding (tested: 10 µg/mL)

# Molecular target: T7, murine plasminogen activator inhibitor-1 (murine, UniProt P22777 23-402)
# T7 construct: also called mPAI-1; murine PAI-1
# T7 sequence (looked up): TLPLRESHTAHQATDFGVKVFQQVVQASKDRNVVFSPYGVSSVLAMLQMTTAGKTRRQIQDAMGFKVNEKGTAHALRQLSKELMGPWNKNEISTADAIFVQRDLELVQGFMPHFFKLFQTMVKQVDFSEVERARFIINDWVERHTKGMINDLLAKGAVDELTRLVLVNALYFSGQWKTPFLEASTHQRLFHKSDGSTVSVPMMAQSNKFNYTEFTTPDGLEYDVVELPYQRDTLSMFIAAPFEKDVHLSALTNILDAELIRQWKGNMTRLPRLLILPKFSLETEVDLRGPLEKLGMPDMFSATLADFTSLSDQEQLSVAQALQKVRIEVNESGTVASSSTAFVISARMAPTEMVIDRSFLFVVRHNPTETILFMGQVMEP
# Assay: as above
row,Binder,binding result
1,B2,no binding (tested: 10 µg/mL)
2,B3,no binding (tested: 10 µg/mL)
3,B4,no binding (tested: 10 µg/mL)

# Molecular target: T4, murine protease nexin-1
# Assay: inhibition of PN-1 activity (residual thrombin activity, chromogenic substrate)
# Remark: another data set of the same source
row,Binder,IC50 [nM]
1,B2,3540
2,B3,670
3,B4,1270

# Molecular target: T5, human protease nexin-1
# Assay: as above
# Remark: another data set of the same source
row,Binder,IC50 [nM]
1,B2,1170
2,B3,230
3,B4,60

# Molecular target: T6, human plasminogen activator inhibitor-1
# Assay: non-adsorbed phage ELISA, phage on coated hPAI-1, anti-M13 detection
row,Binder,binding result
1,B2,no binding

# Molecular target: T6, human plasminogen activator inhibitor-1
# Assay: specificity test of Example 1 (refers to FIG. 2E-G)
row,Binder,binding result
1,B1,no binding
2,B4,no binding
3,B5,no binding
4,B6,no binding
